# Test results from IntAct's records for PubMed 24528925.
# B1: Ubiquitin-conjugating enzyme E2 Z (Homo sapiens), Q9H832 (parent)
# chain: MAESPTEEAATAGAGAAGPGASSVAGVVGVSGSGGGFGPPFLPDVWAAAAAAGGAGGPGSGLAPLPGLPPSAAAHGAALLSHWDPTLSSDWDGERTAPQCLLRIKRDIMSIYKEPPPGMFVVPDTVDMTKIHALITGPFDTPYEGGFFLFVFRCPPDYPIHPPRVKLMTTGNNTVRFNPNFYRNGKVCLSILGTWTGPAWSPAQSISSVLISIQSLMTENPYHNEPGFEQERHPGDSKNYNECIRHETIRVAVCDMMEGKCPCPEPLRGVMEKSFLEYYDFYEVACKDRLHLQGQTMQDPFGEKRGHFDYQSLLMRLGLIRQKVLERLHNENAEMDSDSSSSGTETDLHGSLRV
# Variants of: B1
# Conditions: with ubd_human UBD
row,Variant,effect of a mutation on the interaction
1,MAESPTEEAATAGAGAAGPGASSVAGVVGVSGSGGGFGPPFLPDVWAAAAAAGGAGGPGSGLAPLPGLPPSAAAHGAALLSHWDPTLSSDWDGERTAPQCLLRIKRDIMSIYKEPPPGMFVVPDTVDMTKIHALITGPFDTPYEGGFFLFVFRCPPDYPIHPPRVKLMTTGNNTVRFNPNFYRNGKVCLSILGTWTGPAWSPAQSISSVLISIQSLMTENPYHNEPGFEQERHPGDSKNYNECIRHETIRVAVCDMMEGKCPCPEPLRGVMEKSFLEYYDFYEVACKDRLHLQGQTMQDPFGEKRGHFDYQSLLMRLGLIRQRVLERLHNENAEMDSDSSSSGTETDLHGSLRV [K323R],decreasing interaction
